The test deals with AM receptor expressed in a cultured cell line (HEK293 cell line). Description: cell-based or functional assay.
As for “amidated compound of Example 11: (IgG4 Fc Region)+(Linker S)+(AM (11-52)-Gly), amidated (Fc fusion)”, the Relative activity (%) (vs. hAM), intracellular cAMP, compound at 10^-6 M worked out at 36%.

Substance “amidated compound of Example 10: (IgG4 Fc Region)+(Linker K)+(AM (6-52)-Gly), amidated (Fc fusion)” registered a Relative activity (%) (vs. hAM), intracellular cAMP, compound at 10^-6 M of 39%. In the case of “amidated compound of Example 4: (IgG4 Fc Region)+(Linker K)+(AM-Gly), amidated (Fc fusion)”, the Relative activity (%) (vs. hAM), intracellular cAMP, compound at 10^-6 M was 49%. For the substance “amidated compound of Example 2: (IgG1 Fc Region)+(Linker K)+(AM-Gly), amidated (Fc fusion)”, the Relative activity (%) (vs. hAM), intracellular cAMP, compound at 10^-6 M turned out to be 11%. For “amidated compound of Example 6: (IgG1 Fc Region)+(Linker K)+(AM (6-52)-Gly), amidated (Fc fusion)” the value was 70%; for “amidated compound of Example 5: (IgG1 Fc Region)+(Linker S)+(AM (6-52)-Gly), amidated (Fc fusion)”, 88%; for “amidated compound of Example 9: (IgG4 Fc Region)+(Linker S)+(AM (6-52)-Gly), amidated (Fc fusion)”, 54%. “amidated compound of Example 1: (IgG1 Fc Region)+(Linker S)+(AM-Gly), amidated (Fc fusion)” came in with a Relative activity (%) (vs. hAM), intracellular cAMP, compound at 10^-6 M of 27%. For “amidated compound of Example 8: (IgG1 Fc Region)+(Linker K)+(AM (11-52)-Gly), amidated (Fc fusion)” the value was 48%. The figure for “amidated compound of Example 7: (IgG1 Fc Region)+(Linker S)+(AM (11-52)-Gly), amidated (Fc fusion)” is 68%; for “amidated compound of Example 12: (IgG4 Fc Region)+(Linker K)+(AM (11-52)-Gly), amidated (Fc fusion)” it is 48%; for “amidated compound of Example 3: (IgG4 Fc Region)+(Linker S)+(AM-Gly), amidated (Fc fusion)” it is 27%.

For the origin of these results see patent publication US20210115103A1.
